This is an account of results in US20230226096A1 (Orna Therapeutics, Inc., priority 2020, published 2023).

First the molecules themselves.
B1: Pegivirus I (nucleic acid)
DNA: AGAATGGTCTAAGTGGTTGCCACCGTGGTCCGAAGGGGAGGAGGACCTACGCTGCCAGGGTTGGCAGGTCGTAAATCCCGGGTGTAGGAGATCCCTCCTTGTTAGGACTGCTGGTAGCTGGGGGGTCGGTGACCCCCTGGGCAACCGCCAAACCCGGACGACCGGGTGGCGGCTCCATGTTGGCACGGTCCACAGGTGTGAACCCTACCGGTGTGAATAAGGGTTGGTGGTTGCGGTCCACCTTAAACGTAGTATGCATTGGGCTTGGTAAAACACCGCTCGTAGTACGGAACGCCGCCTTTAAAGACACAGTAGGCGTAGCCGGCGGGTTGACAATCCATACGGGGGGTGGGGTGTGGTCATGGATCTGTCCACACCACCTTCATGCGGCCCTCTAAGCAAGCCATACCGGGGGGAGGCGCGCGGCACCGCACTGCCGGGCAAGGGGAAGAACCTTCGGGTGACCCCCCCCCAACCACCGTCCGATCAATGCTAATGTTGCGTTTAGGCGTGACACCGGCACA
modifications: Pegivirus I
B2: Sakobuvirus A FFUP1 (1x mut) (nucleic acid)
DNA: TCACGCGCTTTTCCGGTGGTCACCCACCGTTAGGGAGCGCCAGCGTTCGCGCTTCCGCTACCAGGTGACACACTCCTTTCCCCTCCCCCATTCCCGTTCCCATCCTCTGGACTGGTTTCTCCTCACGATTGACCAGCAGCTGGGAGCTGTTACCAGACGTTGGACAGTAAGTCCCGGATGCACTATAGGGCTGGTGGCTAGTGCTTGGTAAGCACTCAACGCCATACCTAATGTGTACCTCGGCTTGCCCTCCTGGTCGTGGTGACCGGCTGTTTCTCTTCCCTTGGCTCCAGACGGGCTGGTGTCCTACCACCACCGTTGCATGCAGACCTCCCCCTGCGCACTCGAACGCCCTGTCCCAGCAGGGTTAGTATGTGCTGTGCAGATCTGCATGTGACACCCCATCCACTGGTAGAGCAGGAAGTTGCCCTAGCTAACGCGGCAAGTATTACTTTCCGCTACACGTCCTTGAGATTCCTCGGACCTCTGGAACTAGGGTGACTGTGGGCTTGGGAAAACCCACCTTGGTCCTGTACTGCCTGATAGGGTCGCGGCTGGCCGACCAGTGGATGTAGCCAGTTGTTTTGGGAT
B3: Porcine Kobuvirus GS2 (nucleic acid, listed as Kobuvirus sp.)
DNA: TTTGAAAAGGGGGTGGGGGGGCCTCGGCCCCCTCACCCTCTTTTCCGGTGGCCATTCGCCCGGGCCACCGTTACTCCACTCCACTCCTTCGGGACTGGTTTGGAGGAACACAACAGGGCTTCCCATCCCTGTTTACCCTTTATTCCATCATCCTTTCCCCAAGTTTACCCTATCCACACCCCACTGACTGACTCCTTTGGATTTTGACCTCAGAATGCCTATTTGACCTCCCACTCGCCTCTCCCTTTTCGGATTGCCGGTGGTGCCTGGCGGAAAAAGCACAAGTGTGTTGCAGGCTACCAAACTCCTACCCGACAAAGGTGCGTGTCCGCGTGCTGAGTAATGGGATAGGAGATGCCTACAACAGGCTCGCCCATGAGTAGAGCATGGACTGCGGTGCATGTGACTTCGGTCACCACGGGCATAGCATTGCTCACCCGTGAATCAAGTCATCGAGATTTCTCTGACCTCTGAAGTGCACTGTGGTTGCGTGGCTGGGAATCCACGCTTGACCATGTACTGCTTGATAGAGTCGCGGCTGGCCGACTCATGGGTTAAAGTCAGTTGACAAGACAC
B4: Human pegivirus isolate JD2B1I (nucleic acid, listed as Pegivirus sp.)
DNA: TCAGGGTTGGTAGGTCGTAAATCCCGGTCACCTTGGTAGCCACTATAGGTGGGTCTTAAGAGAAGGTTAAGATTCCTCTTGTGCCTGCGGCGAGACCGCGCACGGTCCACAGGTGTTGGCCCTACCGGTGGGAATAAGGGCCCGACGTCAGGCTCGTCGTTAAACCGAGCCCGTCACCCACCTGGGCAAACGACGCCCACGTACGGTCCACGTCGCCCTTCA
B5: Porcine pestivirus isolate Bungowannah (nucleic acid, listed as Pestivirus sp.)
DNA: TACGCGGGGTATAACGACAGTAGTTCAAGTGTCGTTATGCATCATTGGCCATAACAAATTATCTAATTTGGAATAGGGACCTGCGACCTGTACGAAGGCCGAGCGTCGGTAGCCATTCCGACTAGTAGGACTAGTACAAATAGGTCAACTGGTTGAGCAGGTGAGTGTGCTGCAGCGGCTAAGCGGTGAGTACACCGTATTCGTCAACAGGTGCTACTGGAAAGGATCACCCACTAGCGATGCCTGTGTGGACGAGGACATGTCCAAGCCAATGTTATCAGTAGCGGGGGTCGTTACTGAGAAAGCTGCCCAGAATGGGTAGTTGCACATACAGTCTGATAGGATGCCGGCGGATGCCCTGTATTTTGACCAGTATAAATATTATCCGTTGTAAAGCAT
B6: Kobuvirus SZAL6: "Kobuvirus SZAL6 IRES", one of the selected IRES sequences, SEQ ID NOs: 348-389 (nucleic acid, listed as Kobuvirus sp.)
DNA: TTTCACACCCTCTTTTCCGGTGGTCCGGACCCAGACCACCGTTACTCCATTCAGCTACTTCGGTACCTGTTCGGAGGAATTAAACGGGCACCCTACCCAAGGGTTACATGGGACCATATTCCTCCTCCCCTGTAACTTTAAGTTTTGTGCCCGTATTCTTGACTCCAGGCGGATGTTGTGTCGCCCGTCCTGTGAACAAACAGCTAGACACTTTCCTCCCCTCCCTCTGGGCTGCTCCGGCAGTCCACTCCCTCCCCCCAGCGTAACATGCCCCGCTGGAGTGATGCACCTGGAAGTCGTGGACGTGGGTTAGTAACTTCGGTGAAAACCCACTATAATGACAACTGGTTGACCCCCACACTCAAAGGACTCGAGTCTTTCTCCCTTAAGGCTAGCCCGGCCACATGAATTTGCAGCTGGCAACTAGTGAGTCCACCATGTCCCGCAACCTCGGCTGCGGAGTGCTGTTCCCCAAGCGTATGCCTTCCTTCTGTAAGAGTGCGCCTGGCAAGCACATCTGAGAAGTCGTTCCGCTGCGTCGTGCCAACCTGGCGACAGGTGACCCAGTGTGCGTAGACTTCTTCCGGATTCGTCCGGCTCTTCTCTAGGAAACATGCGTGTAAGGTTCATGTGCCAAAGCCCTGCGCGCGGTGTTCTTCTACTGCCCTAGGAATGTGCCGCAGGTACCCCTACTTCGGTAGGGATCTGAGCGGTAGCTAATTGTCTACGGGTAGTTTCATTTCCATCTTCTCTTCAGGTCGACATC
B7: Human pegivirus isolate JD2B8C (nucleic acid, listed as Pegivirus sp.)
DNA: TGGTCACCTTGGTAGCCACTATAGGTGGGTCTTAAGAGAAGGTTAAGATTCCTCTTGTGCCTGCGGCGAGACCGCGCACGGTCCACAGGTGTTGGCCCTACCGGTGTGAATAAGGGCCCGACGTCAGGCTCGTCGTTAAACCGAGCCCATTTCCCGCCTGGGCAAACGACGCCCACGTACGGTCCACGTCGCCCTTTTAATGTCTCTCTTGACCAATAGGTTCATCCGGCGAGTTGACAAGGACCAGTGGGGGCCGGGGGTCACAGGGATGGACCCTGGGCCCTGCCCTTCCCGGCGGGGTGGGGAAAGCATGGGGCCACCCAGCTCCGCGGCGGCCTGCAGCCGGGGTAGCCCAAGAACCTTCGGGTGAGGGCGGGTGGCATTTTTCTTCCTATACCGATC
B8: Porcine pestivirus 1 (nucleic acid, listed as Pestivirus sp.)
DNA: GCAGATATCGGTGGTGGACCTGGGGGTTGGGCTCACCGTGCCCCTTCATGGGGTAGACCTCACTGCTTGATAGAGTGCCGGCGGATGCCTCAGGTAAGAGTATAAAATCCGTTGTTCACTAAC
modifications: chemistry not fully specified; the letters are possibly those of the target site
B9: Pestivirus giraffe-1 (nucleic acid, listed as Pestivirus sp.)
DNA: GTATACGAGTTTAGCTCAATCCTCGTATACAATATTGGGCGTCACCAAATATAGATTTGGCATAGGCAACACCCCGATGCGAAGGCCGAAAAGGGCTAACCATGCCCTTAGTAGGACTAGCAAAAAATCGGGGACTAGCCCAGGTGGTGAGCTTCCTGGATGACCGAAGCCCTGAGTACAGGGCAGTCGTCAACAGTTCAACACGCAGAATAGGTTTGCGTCTTGATATGCTGTGTGGACGAGGGCATGCCCACGGTACATCTTAACCTATCCGGGGGTCGGATAGGCGAAAGTCCAGTATTGGACTGGGAGTACAGCCTGATAGGGTGTTGCAGAGACCCATCTGATAGGCTAGTATAAAAAACTCTGCTGTACATGGCAC
B10: Simian pegivirus (nucleic acid, listed as Pegivirus sp.)
DNA: GGGGAATCTCACCCCCCGTCCGGTTCCGGAAGAATCGGAAACCGACACCCTGACCAATCATTCTTGATCATAGAGTGGATGTTAGTGAAAGCCAGACGAAAGCCGGCGGATGGGTGGTGACAGGGTTGGTAGGTCGTAAATCCCGGCCACCCTGGTACCCGGTATAAGTTGGGCGGAAGCTGACTGAAGCTCCGTGCTCTTTTCTGTGCGTTCTTGGTGCACGGTCCACAGGTGACGCCTATACCGGTGTGAATAATAGGCCGACTCGAGCGGAGTCGTTAAACTGAGAACCTCCATACGGATGGCAACTTGGCTTGCGTACGGGGACGCCGCTAAAGTCACAGTGGGTTAAGTCCGGCGGGTTGACAACCCCAGCAAGGCGAGGGGGTCCTATTGTTGGACTCTGCCAGTTCCCGGTGGAGGTAGGCATGGGGTGGCCCAGCTCCGCGGCGCGCTACAGCCGGGGTAGCCCAAAATCCGAAAGGTGAGGGCGGGCCACATGTCCGAAATTTAGTCAAGC
B11: Pronghorn antelope pestivirus (nucleic acid, listed as Pestivirus sp.)
DNA: GTATACGCAGTTAGTTCATCCTGTGTATACAGATTGGAGACTCTAAAAACAACGATTCGGAATAGGGGCCCGCGGCGAAGACCGAAGACAGGCTAACCATGCCGTTAGTAGGGCTAGCACCAAAACGCGGGAACTAGACACTTAGGAGAGTGGTCTGGCTACTCTAAGAGGTGAGTACACCTTAACCGTCAAGGGTTCTACTCCTCAGTTGAGGACTAGAGATGCCCTGTGGACGGGGGCATGCCCAAGAGTTAGCTTAGCCGGGGCGGGGGTTGTTCCGGTGAAAGTAGCAATATTGACCACACTGCCTGATAGGGCGGAGCAGGCCCCCTAGGTAGTCTAGTATAAAATGTCTGCTGTACATGGCAC

For this series, the system named is HEK293 cells. The class given is cell-based, human. Particulars: luminescence from secreted Gluc in supernatant 24 hours after transfection of HEK293 cells; circular RNA encoding Gluc with the named IRES (UTR truncated to 675 nt).
Consider B1, for which the Expression is 8.02E+04.

B2 yielded an Expression of 8.82E+06.

For B3, the Expression was 44200000.

Regarding B4, the Expression amounted to 6.85E+05. To B5 belongs 1.10E+07. In the case of B6, the Expression is recorded as 98850000.

B7 came in with an Expression of 5.36E+05.

Molecule B8 showed an Expression of 9.46E+04. To B9 belongs 4.72E+05.

Regarding B10, the Expression is on record as 8.56E+04. B11 registered an Expression of 1.35E+06.
